Measurements taken from paper PMC6943190.

Key:
[1] = target: C11+C661-SecA (Escherichia coli) (UniProt P10408); test: cross-linking
[2] = target: C403-SecA (Escherichia coli) (UniProt P10408); test: cross-linking

| Substance | stoichiometry N [1] | stoichiometry N [2] |
| --- | --- | --- |
| C11+C661-SecA (from UniProt P10408 1-901) (enzyme) | 2 |  |
| C403-SecA (from UniProt P10408 1-901) (enzyme) |  | 2 |
